Assay results as given in the supplement of paper PMC10065799, “High-throughput profiling of sequence recognition by tyrosine kinases and SH2 domains using bacterial peptide display” (eLife, 2023).
One block for each sequence: values may come before it.

Legend:
[1] = tested on: AncSZ; assay: phosphorylation enrichment, bacterial display (enrichment ratio); higher = better substrate or ligand; peptides without Tyr show the background
[2] = target: EPHB1 (UniProt P54762); assay: as above
[3] = target: EPHB2 (UniProt P29323); assay: as above
EPHB2, sequence (P29323 whole entry, looked up): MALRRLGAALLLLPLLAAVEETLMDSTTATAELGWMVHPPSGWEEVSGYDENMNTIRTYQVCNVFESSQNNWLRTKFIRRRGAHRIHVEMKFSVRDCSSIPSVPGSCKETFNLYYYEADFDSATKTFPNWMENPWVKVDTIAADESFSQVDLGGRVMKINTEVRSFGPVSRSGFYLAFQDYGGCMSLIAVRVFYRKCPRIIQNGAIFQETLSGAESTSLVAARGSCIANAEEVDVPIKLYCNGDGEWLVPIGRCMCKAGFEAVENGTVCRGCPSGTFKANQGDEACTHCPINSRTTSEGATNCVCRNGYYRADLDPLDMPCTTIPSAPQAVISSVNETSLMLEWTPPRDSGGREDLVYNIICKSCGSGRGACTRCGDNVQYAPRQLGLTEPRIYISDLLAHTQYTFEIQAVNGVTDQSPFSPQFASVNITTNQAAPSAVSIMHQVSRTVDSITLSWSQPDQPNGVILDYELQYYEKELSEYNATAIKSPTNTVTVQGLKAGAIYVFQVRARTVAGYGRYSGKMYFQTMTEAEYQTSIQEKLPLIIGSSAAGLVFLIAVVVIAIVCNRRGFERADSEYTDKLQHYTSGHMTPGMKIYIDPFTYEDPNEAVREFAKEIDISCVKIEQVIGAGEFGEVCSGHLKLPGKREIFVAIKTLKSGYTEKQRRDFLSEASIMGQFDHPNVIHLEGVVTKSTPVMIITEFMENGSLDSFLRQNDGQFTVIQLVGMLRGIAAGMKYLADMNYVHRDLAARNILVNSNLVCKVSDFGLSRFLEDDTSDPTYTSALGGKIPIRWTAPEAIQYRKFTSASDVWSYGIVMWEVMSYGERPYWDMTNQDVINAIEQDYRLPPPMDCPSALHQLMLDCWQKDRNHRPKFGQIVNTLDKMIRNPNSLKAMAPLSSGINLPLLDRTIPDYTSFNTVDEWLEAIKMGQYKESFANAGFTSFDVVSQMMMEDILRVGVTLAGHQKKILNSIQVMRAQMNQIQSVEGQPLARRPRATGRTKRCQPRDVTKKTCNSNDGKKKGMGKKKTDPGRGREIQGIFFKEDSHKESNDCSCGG

[4] = target: FGFR1 (UniProt P11362); assay: as above
[5] = target: FGFR3 (UniProt P22607); assay: as above
[6] = tested on: Fer (mouse); assay: as above
[7] = target: Fes (UniProt P07332); assay: as above
Fes, sequence (P07332 whole entry, looked up): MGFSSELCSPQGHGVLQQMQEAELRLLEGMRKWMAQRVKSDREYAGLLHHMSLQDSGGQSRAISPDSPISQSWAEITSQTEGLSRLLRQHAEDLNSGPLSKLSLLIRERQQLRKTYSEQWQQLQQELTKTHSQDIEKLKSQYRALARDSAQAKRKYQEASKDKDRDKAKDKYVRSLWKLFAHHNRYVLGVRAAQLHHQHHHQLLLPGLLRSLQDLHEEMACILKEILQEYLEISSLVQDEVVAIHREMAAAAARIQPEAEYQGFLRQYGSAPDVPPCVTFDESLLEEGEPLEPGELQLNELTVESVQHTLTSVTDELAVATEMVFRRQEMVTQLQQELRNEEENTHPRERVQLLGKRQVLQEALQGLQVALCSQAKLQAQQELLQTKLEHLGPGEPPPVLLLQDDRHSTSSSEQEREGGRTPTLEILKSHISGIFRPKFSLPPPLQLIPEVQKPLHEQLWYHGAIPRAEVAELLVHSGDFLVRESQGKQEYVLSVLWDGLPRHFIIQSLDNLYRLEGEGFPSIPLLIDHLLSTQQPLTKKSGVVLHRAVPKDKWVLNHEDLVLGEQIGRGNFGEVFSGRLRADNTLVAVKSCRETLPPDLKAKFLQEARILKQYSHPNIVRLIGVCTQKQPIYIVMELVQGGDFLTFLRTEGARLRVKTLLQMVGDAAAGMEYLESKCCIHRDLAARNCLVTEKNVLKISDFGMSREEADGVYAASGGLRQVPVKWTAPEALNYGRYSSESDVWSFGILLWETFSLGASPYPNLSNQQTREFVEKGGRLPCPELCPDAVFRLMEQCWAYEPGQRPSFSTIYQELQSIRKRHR

[8] = target: Fyn (UniProt P06241); assay: as above
Fyn, sequence (P06241 whole entry, looked up): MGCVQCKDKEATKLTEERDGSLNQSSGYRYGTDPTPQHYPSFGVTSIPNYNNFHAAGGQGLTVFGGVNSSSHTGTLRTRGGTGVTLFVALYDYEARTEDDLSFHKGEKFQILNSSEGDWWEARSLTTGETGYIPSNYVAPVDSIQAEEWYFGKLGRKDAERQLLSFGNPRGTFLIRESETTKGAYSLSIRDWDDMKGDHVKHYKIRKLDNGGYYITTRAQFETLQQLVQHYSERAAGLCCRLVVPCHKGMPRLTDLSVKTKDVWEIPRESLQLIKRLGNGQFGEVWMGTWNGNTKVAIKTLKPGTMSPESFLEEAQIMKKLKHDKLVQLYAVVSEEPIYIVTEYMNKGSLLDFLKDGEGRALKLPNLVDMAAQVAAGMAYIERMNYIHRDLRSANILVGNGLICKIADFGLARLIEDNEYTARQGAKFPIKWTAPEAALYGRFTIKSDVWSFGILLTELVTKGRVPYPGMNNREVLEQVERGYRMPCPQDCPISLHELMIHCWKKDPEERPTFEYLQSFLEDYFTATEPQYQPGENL

[9] = target: Hck (UniProt P08631); assay: as above
Hck, sequence (P08631 whole entry, looked up): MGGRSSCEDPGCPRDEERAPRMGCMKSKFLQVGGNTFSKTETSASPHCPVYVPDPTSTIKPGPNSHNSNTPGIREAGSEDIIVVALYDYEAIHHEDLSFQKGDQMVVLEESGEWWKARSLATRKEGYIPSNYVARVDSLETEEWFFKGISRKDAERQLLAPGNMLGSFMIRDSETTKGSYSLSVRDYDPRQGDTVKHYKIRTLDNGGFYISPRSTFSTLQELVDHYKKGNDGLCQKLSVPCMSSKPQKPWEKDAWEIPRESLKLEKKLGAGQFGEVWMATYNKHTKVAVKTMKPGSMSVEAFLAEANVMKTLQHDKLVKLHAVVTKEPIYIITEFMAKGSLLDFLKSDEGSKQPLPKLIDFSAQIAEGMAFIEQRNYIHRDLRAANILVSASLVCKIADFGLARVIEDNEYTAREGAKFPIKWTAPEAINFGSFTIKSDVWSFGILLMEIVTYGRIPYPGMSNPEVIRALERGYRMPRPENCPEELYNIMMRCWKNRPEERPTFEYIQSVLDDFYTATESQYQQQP

[10] = target: Jak2 (UniProt O60674); assay: as above
[11] = target: MERTK (UniProt Q12866); assay: as above
MERTK, sequence (Q12866 whole entry, looked up): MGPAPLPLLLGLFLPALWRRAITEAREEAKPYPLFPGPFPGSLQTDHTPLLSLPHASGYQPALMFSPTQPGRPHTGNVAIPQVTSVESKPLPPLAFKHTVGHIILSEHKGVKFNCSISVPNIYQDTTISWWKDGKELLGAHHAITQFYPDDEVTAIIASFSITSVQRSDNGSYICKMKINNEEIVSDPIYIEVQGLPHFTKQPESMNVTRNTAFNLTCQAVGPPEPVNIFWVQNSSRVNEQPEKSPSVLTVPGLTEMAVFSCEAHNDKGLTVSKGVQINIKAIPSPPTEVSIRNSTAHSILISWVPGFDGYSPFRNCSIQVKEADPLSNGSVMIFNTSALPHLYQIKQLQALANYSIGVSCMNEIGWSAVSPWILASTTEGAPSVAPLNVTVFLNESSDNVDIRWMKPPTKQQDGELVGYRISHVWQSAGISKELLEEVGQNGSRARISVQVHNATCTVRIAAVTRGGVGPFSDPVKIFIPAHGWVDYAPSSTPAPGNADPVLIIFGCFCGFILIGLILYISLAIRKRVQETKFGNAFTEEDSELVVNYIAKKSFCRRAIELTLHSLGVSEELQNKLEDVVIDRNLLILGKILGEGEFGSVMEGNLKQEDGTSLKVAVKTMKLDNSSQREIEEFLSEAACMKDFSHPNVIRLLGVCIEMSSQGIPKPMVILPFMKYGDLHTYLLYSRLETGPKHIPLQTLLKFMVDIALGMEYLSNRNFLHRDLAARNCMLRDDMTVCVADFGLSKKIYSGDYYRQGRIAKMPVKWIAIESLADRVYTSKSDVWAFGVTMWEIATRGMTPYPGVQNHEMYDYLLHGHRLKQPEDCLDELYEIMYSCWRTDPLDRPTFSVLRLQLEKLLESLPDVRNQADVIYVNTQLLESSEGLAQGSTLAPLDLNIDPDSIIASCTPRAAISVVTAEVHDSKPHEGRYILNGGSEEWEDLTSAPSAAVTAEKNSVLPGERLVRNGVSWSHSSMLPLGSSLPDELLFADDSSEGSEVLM

[12] = tested on: c-Abl (mouse); assay: as above
[13] = tested on: c-Src; assay: as above
[14] = target: Grb2 SH2 (UniProt P62993); assay: SH2 binding enrichment of the phosphorylated peptide, bacterial display (enrichment ratio); higher = better substrate or ligand; peptides without Tyr show the background
[15] = target: SHP2-C SH2; assay: as above
[16] = target: c-Src SH2; assay: as above
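For SH2 binding enrichment of the phosphorylated peptide, bacterial display in this document: peptide library displayed on the E. coli surface as eCPX fusions, selected cells deep-sequenced, score is each peptide's frequency after selection divided by its frequency in the input.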
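For phosphorylation enrichment, bacterial display in this document: 11-residue human phosphosite peptides and single-mutation variants displayed on the E. coli surface, counted by deep sequencing, each peptide's frequency after selection divided by its frequency in the unselected input library; frequency after pTyr selection over input frequency; kinase dosed for 20-30% of maximal phosphorylation in three min.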

EPHB1, sequence (P54762 whole entry, looked up): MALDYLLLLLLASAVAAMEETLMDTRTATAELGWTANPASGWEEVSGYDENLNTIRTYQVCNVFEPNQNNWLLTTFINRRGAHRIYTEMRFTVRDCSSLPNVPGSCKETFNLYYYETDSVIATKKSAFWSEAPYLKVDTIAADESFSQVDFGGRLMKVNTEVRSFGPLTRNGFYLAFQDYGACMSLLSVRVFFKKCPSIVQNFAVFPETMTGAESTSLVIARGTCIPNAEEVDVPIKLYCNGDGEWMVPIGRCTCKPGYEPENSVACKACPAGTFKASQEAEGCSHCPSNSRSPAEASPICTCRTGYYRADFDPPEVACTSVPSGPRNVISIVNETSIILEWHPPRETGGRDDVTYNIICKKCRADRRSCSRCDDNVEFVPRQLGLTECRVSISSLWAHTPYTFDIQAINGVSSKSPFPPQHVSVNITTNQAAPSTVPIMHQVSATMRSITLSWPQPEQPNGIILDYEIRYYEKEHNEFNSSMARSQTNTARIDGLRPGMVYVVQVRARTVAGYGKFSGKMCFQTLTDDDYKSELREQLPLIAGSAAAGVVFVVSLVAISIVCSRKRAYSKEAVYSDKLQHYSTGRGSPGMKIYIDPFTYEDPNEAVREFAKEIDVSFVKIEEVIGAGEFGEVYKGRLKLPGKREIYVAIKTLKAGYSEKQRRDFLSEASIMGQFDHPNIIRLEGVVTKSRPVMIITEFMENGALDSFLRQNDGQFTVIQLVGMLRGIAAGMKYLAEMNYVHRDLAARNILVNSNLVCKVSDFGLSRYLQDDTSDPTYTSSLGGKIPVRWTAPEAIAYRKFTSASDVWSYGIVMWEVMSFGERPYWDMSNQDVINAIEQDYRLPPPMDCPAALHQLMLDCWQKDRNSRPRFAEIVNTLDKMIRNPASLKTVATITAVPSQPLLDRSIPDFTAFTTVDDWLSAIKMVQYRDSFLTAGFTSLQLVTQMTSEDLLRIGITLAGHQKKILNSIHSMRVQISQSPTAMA

Sequence: SEASGYQDNIA [DES_Y363]
phosphorylation enrichment [1]: 0.778 | phosphorylation enrichment [2]: 0.52 | phosphorylation enrichment [3]: 0.485 | phosphorylation enrichment [4]: 0.441 | phosphorylation enrichment [5]: 0.674 | phosphorylation enrichment [6]: 0.551 | phosphorylation enrichment [7]: 0.94 | phosphorylation enrichment [8]: 0.384 | phosphorylation enrichment [9]: 0.485 | phosphorylation enrichment [10]: 0.783 | phosphorylation enrichment [11]: 0.515 | phosphorylation enrichment [12]: 0.616 | phosphorylation enrichment [13]: 0.427 | SH2 binding enrichment [14]: 0.907 | SH2 binding enrichment [15]: 0.567 | SH2 binding enrichment [16]: 0.52

Sequence: SEKVVYQRFTE [NCF1_Y41_R42Q]
phosphorylation enrichment [1]: 0.675 | phosphorylation enrichment [2]: 0.457 | phosphorylation enrichment [3]: 0.394 | phosphorylation enrichment [4]: 0.574 | phosphorylation enrichment [5]: 0.542 | phosphorylation enrichment [6]: 0.508 | phosphorylation enrichment [7]: 0.763 | phosphorylation enrichment [8]: 0.889 | phosphorylation enrichment [9]: 0.959 | phosphorylation enrichment [10]: 0.931 | phosphorylation enrichment [11]: 0.379 | phosphorylation enrichment [12]: 1.07 | phosphorylation enrichment [13]: 1.93 | SH2 binding enrichment [14]: 0.676 | SH2 binding enrichment [15]: 1.72 | SH2 binding enrichment [16]: 0.618

Sequence: SFIGQYSGKKE [L1CAM_Y1229]
phosphorylation enrichment [1]: 0.735 | phosphorylation enrichment [2]: 0.452 | phosphorylation enrichment [3]: 0.413 | phosphorylation enrichment [4]: 0.417 | phosphorylation enrichment [5]: 0.519 | phosphorylation enrichment [6]: 0.372 | phosphorylation enrichment [7]: 0.714 | phosphorylation enrichment [8]: 0.461 | phosphorylation enrichment [9]: 0.486 | phosphorylation enrichment [10]: 0.532 | phosphorylation enrichment [11]: 0.382 | phosphorylation enrichment [12]: 0.609 | phosphorylation enrichment [13]: 0.374 | SH2 binding enrichment [14]: 0.721 | SH2 binding enrichment [15]: 0.622 | SH2 binding enrichment [16]: 0.525

Sequence: SFVVRYNQPRV [GRIN2D_Y736_M733V_YF]
phosphorylation enrichment [1]: 1.01 | phosphorylation enrichment [2]: 0.559 | phosphorylation enrichment [3]: 0.517 | phosphorylation enrichment [4]: 0.499 | phosphorylation enrichment [5]: 0.608 | phosphorylation enrichment [6]: 0.49 | phosphorylation enrichment [7]: 1.1 | phosphorylation enrichment [8]: 0.483 | phosphorylation enrichment [9]: 0.515 | phosphorylation enrichment [10]: 0.794 | phosphorylation enrichment [11]: 0.366 | phosphorylation enrichment [12]: 0.663 | phosphorylation enrichment [13]: 0.377 | SH2 binding enrichment [14]: 1.06 | SH2 binding enrichment [15]: 0.697 | SH2 binding enrichment [16]: 0.972

Sequence: SGIFQYSIAKF [FOXL2_Y83_I84S_YF]
phosphorylation enrichment [1]: 0.889 | phosphorylation enrichment [2]: 0.555 | phosphorylation enrichment [3]: 0.525 | phosphorylation enrichment [4]: 0.64 | phosphorylation enrichment [5]: 0.638 | phosphorylation enrichment [6]: 0.467 | phosphorylation enrichment [7]: 0.969 | phosphorylation enrichment [8]: 0.478 | phosphorylation enrichment [9]: 0.569 | phosphorylation enrichment [10]: 0.756 | phosphorylation enrichment [11]: 0.469 | phosphorylation enrichment [12]: 0.573 | phosphorylation enrichment [13]: 0.5 | SH2 binding enrichment [14]: 0.947 | SH2 binding enrichment [15]: 1.5 | SH2 binding enrichment [16]: 1.11

Sequence: SLGKGYFDGGC [MC4R_Y35_S36Y_YF]
phosphorylation enrichment [1]: 0.922 | phosphorylation enrichment [2]: 0.452 | phosphorylation enrichment [3]: 0.529 | phosphorylation enrichment [4]: 0.434 | phosphorylation enrichment [5]: 0.611 | phosphorylation enrichment [6]: 0.35 | phosphorylation enrichment [7]: 0.924 | phosphorylation enrichment [8]: 0.377 | phosphorylation enrichment [9]: 0.429 | phosphorylation enrichment [10]: 0.889 | phosphorylation enrichment [11]: 0.389 | phosphorylation enrichment [12]: 0.842 | phosphorylation enrichment [13]: 0.481 | SH2 binding enrichment [14]: 0.838 | SH2 binding enrichment [15]: 0.704 | SH2 binding enrichment [16]: 0.555

Sequence: SLIDMYSEVLD [OPA1_Y268]
phosphorylation enrichment [1]: 1.26 | phosphorylation enrichment [2]: 0.621 | phosphorylation enrichment [3]: 0.683 | phosphorylation enrichment [4]: 0.633 | phosphorylation enrichment [5]: 0.719 | phosphorylation enrichment [6]: 0.535 | phosphorylation enrichment [7]: 1.12 | phosphorylation enrichment [8]: 0.575 | phosphorylation enrichment [9]: 0.579 | phosphorylation enrichment [10]: 1.1 | phosphorylation enrichment [11]: 0.527 | phosphorylation enrichment [12]: 0.569 | phosphorylation enrichment [13]: 0.591 | SH2 binding enrichment [14]: 0.839 | SH2 binding enrichment [15]: 0.924 | SH2 binding enrichment [16]: 0.778

Sequence: SLLTDDSPQLQ [OTC_Y345_Y345D]
phosphorylation enrichment [1]: 1.14 | phosphorylation enrichment [2]: 0.928 | phosphorylation enrichment [3]: 0.548 | phosphorylation enrichment [4]: 0.491 | phosphorylation enrichment [5]: 0.764 | phosphorylation enrichment [6]: 0.444 | phosphorylation enrichment [7]: 1.29 | phosphorylation enrichment [8]: 0.407 | phosphorylation enrichment [9]: 0.481 | phosphorylation enrichment [10]: 1.22 | phosphorylation enrichment [11]: 0.538 | phosphorylation enrichment [12]: 0.923 | phosphorylation enrichment [13]: 0.453 | SH2 binding enrichment [14]: 0.746 | SH2 binding enrichment [15]: 0.49 | SH2 binding enrichment [16]: 0.413

Sequence: SLNAVYPRAGS [OAS3_Y376]
phosphorylation enrichment [1]: 0.451 | phosphorylation enrichment [2]: 0.306 | phosphorylation enrichment [3]: 0.323 | phosphorylation enrichment [4]: 0.384 | phosphorylation enrichment [5]: 0.357 | phosphorylation enrichment [6]: 0.314 | phosphorylation enrichment [7]: 0.481 | phosphorylation enrichment [8]: 0.331 | phosphorylation enrichment [9]: 0.368 | phosphorylation enrichment [10]: 0.462 | phosphorylation enrichment [11]: 0.378 | phosphorylation enrichment [12]: 0.507 | phosphorylation enrichment [13]: 0.368 | SH2 binding enrichment [14]: 0.872 | SH2 binding enrichment [15]: 0.509 | SH2 binding enrichment [16]: 0.452

The next lines start with results.

SH2 binding enrichment [14]: 0.801 | SH2 binding enrichment [15]: 0.729 | SH2 binding enrichment [16]: 0.499
Sequence: SEHLIYLEFKS [RASGRP1_Y215_T214I]
phosphorylation enrichment [1]: 1.44 | phosphorylation enrichment [2]: 1.58 | phosphorylation enrichment [3]: 1.04 | phosphorylation enrichment [4]: 1.61 | phosphorylation enrichment [5]: 1.77 | phosphorylation enrichment [6]: 0.69 | phosphorylation enrichment [7]: 1.46 | phosphorylation enrichment [8]: 6.74 | phosphorylation enrichment [9]: 5.08 | phosphorylation enrichment [10]: 1.2 | phosphorylation enrichment [11]: 0.875 | phosphorylation enrichment [12]: 6.39 | phosphorylation enrichment [13]: 5.64

SH2 binding enrichment [14]: 0.959 | SH2 binding enrichment [15]: 0.922 | SH2 binding enrichment [16]: 0.682
Sequence: SENPKCPEVGD [TMEM43_Y233_Y233C]
phosphorylation enrichment [1]: 0.971 | phosphorylation enrichment [2]: 0.492 | phosphorylation enrichment [3]: 0.49 | phosphorylation enrichment [4]: 0.487 | phosphorylation enrichment [5]: 0.595 | phosphorylation enrichment [6]: 0.467 | phosphorylation enrichment [7]: 1.08 | phosphorylation enrichment [8]: 0.441 | phosphorylation enrichment [9]: 0.487 | phosphorylation enrichment [10]: 0.807 | phosphorylation enrichment [11]: 0.461 | phosphorylation enrichment [12]: 1.24 | phosphorylation enrichment [13]: 0.471

SH2 binding enrichment [14]: 2.09 | SH2 binding enrichment [15]: 1.58 | SH2 binding enrichment [16]: 1.78
Sequence: SFCFRYRCAAW [SUMF1_Y344_R349W_YF]
phosphorylation enrichment [1]: 0.933 | phosphorylation enrichment [2]: 0.473 | phosphorylation enrichment [3]: 0.465 | phosphorylation enrichment [4]: 0.501 | phosphorylation enrichment [5]: 0.613 | phosphorylation enrichment [6]: 0.454 | phosphorylation enrichment [7]: 0.829 | phosphorylation enrichment [8]: 0.41 | phosphorylation enrichment [9]: 0.442 | phosphorylation enrichment [10]: 0.638 | phosphorylation enrichment [11]: 0.449 | phosphorylation enrichment [12]: 0.45 | phosphorylation enrichment [13]: 0.363

SH2 binding enrichment [14]: 0.941 | SH2 binding enrichment [15]: 0.71 | SH2 binding enrichment [16]: 0.46
Sequence: SHNELYFEEAE [VANGL1_Y344_YF]
phosphorylation enrichment [1]: 1.09 | phosphorylation enrichment [2]: 0.568 | phosphorylation enrichment [3]: 0.619 | phosphorylation enrichment [4]: 0.68 | phosphorylation enrichment [5]: 1.02 | phosphorylation enrichment [6]: 0.693 | phosphorylation enrichment [7]: 1.21 | phosphorylation enrichment [8]: 0.67 | phosphorylation enrichment [9]: 0.633 | phosphorylation enrichment [10]: 1.23 | phosphorylation enrichment [11]: 0.556 | phosphorylation enrichment [12]: 0.671 | phosphorylation enrichment [13]: 0.492

SH2 binding enrichment [14]: 1.02 | SH2 binding enrichment [15]: 0.678 | SH2 binding enrichment [16]: 0.764
Sequence: SILAVYSKDIF [PANK2_Y400_N404I_YF]
phosphorylation enrichment [1]: 0.691 | phosphorylation enrichment [2]: 0.477 | phosphorylation enrichment [3]: 0.494 | phosphorylation enrichment [4]: 0.445 | phosphorylation enrichment [5]: 0.537 | phosphorylation enrichment [6]: 0.46 | phosphorylation enrichment [7]: 0.663 | phosphorylation enrichment [8]: 1.11 | phosphorylation enrichment [9]: 0.765 | phosphorylation enrichment [10]: 0.688 | phosphorylation enrichment [11]: 2.99 | phosphorylation enrichment [12]: 0.578 | phosphorylation enrichment [13]: 1.62

SH2 binding enrichment [14]: 0.875 | SH2 binding enrichment [15]: 0.88 | SH2 binding enrichment [16]: 0.562
Sequence: SLGSPYGQPPC [PDLIM4_Y137_R142C]
phosphorylation enrichment [1]: 0.659 | phosphorylation enrichment [2]: 0.453 | phosphorylation enrichment [3]: 0.491 | phosphorylation enrichment [4]: 0.465 | phosphorylation enrichment [5]: 0.588 | phosphorylation enrichment [6]: 0.37 | phosphorylation enrichment [7]: 0.835 | phosphorylation enrichment [8]: 0.458 | phosphorylation enrichment [9]: 0.576 | phosphorylation enrichment [10]: 0.568 | phosphorylation enrichment [11]: 0.39 | phosphorylation enrichment [12]: 0.817 | phosphorylation enrichment [13]: 0.373

SH2 binding enrichment [14]: 0.657 | SH2 binding enrichment [15]: 0.453 | SH2 binding enrichment [16]: 0.487
Sequence: SLTCTYSPALN [TP53_Y126_V122L]
phosphorylation enrichment [1]: 1.56 | phosphorylation enrichment [2]: 0.924 | phosphorylation enrichment [3]: 0.882 | phosphorylation enrichment [4]: 0.66 | phosphorylation enrichment [5]: 1.21 | phosphorylation enrichment [6]: 0.696 | phosphorylation enrichment [7]: 1.81 | phosphorylation enrichment [8]: 0.797 | phosphorylation enrichment [9]: 0.818 | phosphorylation enrichment [10]: 1.57 | phosphorylation enrichment [11]: 0.522 | phosphorylation enrichment [12]: 1.65 | phosphorylation enrichment [13]: 0.804
